This experiment addresses T1, Syk (UniProt P43405 1-635, limits assumed).
T1 construct: also called Syk kinase; pcDNA3-Syk
As to the kind of experiment: co-immunoprecipitation from co-transfected AD293 cells. Here is the method: AD293 cells (a cell line derived from HEK293 with improved cell adherence and plaque formation, Agilent) were washed with Dulbecco's PBS (DPBS), and resuspended in 2.0 μg/ml of anti-human TREM-1 antibody (R&D Systems) on ice for 30 min. After washing with DPBS, cells were incubated with 1.0 μg/ml of Affinipure rabbit anti-mouse IgG (H+L) Ab (Jackson Immunoresearch) at 37° C. for 10 min. Cells were then scraped off the plates and followed by centrifugation at 400 g for 10 minutes at 4° C. Cells were washed twice with cold 1×DPBS and lysed on ice for 30 min at 4° C. in 1 ml of lysis buffer (1% NP-40, 10 mM Tris, 150 mM NaCl, 0.5 mM phenylmethylsulfonyl fluoride, 10 mM iodoacetamide, 50 mM NaF, 1 mM ethylenediamenetetraacetic acid, 1 mM sodium orthovanadate, 0.25% sodium Deoxycholate, 10 μl Ala-Ala-Phe p-nitroanilide (SIGMA), 10 μl protease cocktail I (SIGMA cat #P2850) and 10 μl protease cocktail II (SIGMA cat #P5726). Cell lysates were centrifuged at 12,000 g at 4° C. for 15 minutes to remove nuclei and cell debris, after which the clarified lysate supernatant was isolated. The protein concentration of the soluble extracts was determined using the Bradford protein assay (Bio-Rad, Hercules, CA, USA) following manufacturer protocol. Western blots were blocked in PBST containing 4% BSA for 1 h and then incubated overnight at 4° C. in primary antibodies. […]

B1: wild-type DAP12 (12-kilodalton DNAX activating protein) (other)
chain: IALAVYFLGRLVPRGRGAAEAATRKQRITETESPYQELQGQRSDVYSDLNTQRPYYK
notes: Over-expressed from pcDNA3 in AD293 cells together with pcDNA3-Syk; co-immunoprecipitated from cell lysates; No signal peptide limits are stated; also called WT DAP12; WT
For B1, the binding result is recorded as “no binding”.

Values taken from US20250304636A1 (H LEE MOFFITT CANCER CENTER AND RESEARCH INSTITUTE, published 2025).
